Experimental data published in patent US20090175866A1, “TREATMENT OF B-CELL MALIGNANCIES” (priority 2004, published 2009).

Columns and labels:
KMS18 (FGFR3-G384D) = experiment: Viability of KMS18 myeloma cells; type: cell-based, human; conditions: cells grow independent of FGF
Method: (§1) Non-transformed rat chondrocyte cell line expressing PGFR3 in an inducible manner (RCJ-FGFR3) has been described previously (Rauchenberger R. et al. J. Biol. Chem. 2003; 278:38194-205). Cells were maintained in α-Minimum Essential Media supplemented with 15% fetal calf serum (FCS), 2 mM L-Glutamine, 100 U/ml penicillin, 100 μg/ml streptomycin, 600 μg/ml G418 (Gibco BRL, Ontario, Canada), 2 μg/ml Tetracyclin (Sigma, Ontario, Canada), and 50 μg/ml HygromycinB (Gibco BRL). FGFR3 expression was induced by removal of tetracyclin and serum starvation. […]
(§2) Cell viability was assessed by 3-(4,5-dimethylthiazol)-2,5-diphenyl tetrazolium (MTT) or (2,3-bis(2-methoxy-4-nitro-5-sulphophenyl)-5-[(phenylamino) carbonyl]-2H-tetrazolium hydroxide (XTT) dye absorbance where indicated. Cells were seeded in 96-well plates at a density of 20,000 (FDCP-1 cells), 5,000 (B9 cells) or 25,000 cells (MM cell lines) per well in culture medium. Cells were incubated in the absence or presence of one of the following cytokines: 10 ng/ml FGF9 and 5 μg/ml heparin, 1% murine IL-6, 50 ng/ml IGF-1 or 50 ng/ml human IL-6 where indicated and increasing concentrations of PRO-001, control antibody (purified human Fab) or 100 nM PD173074. […]

BMSC = experiment: Direct toxicity on bone marrow stroma cells (annexin V); type: cell-based, human; conditions: 5 μg/ml, 72 hours (FIG. 5 legend)
Method: FIG. 5 is a graph showing apoptosis of UTMC2 cells in response to treatment with PRO-001 in the presence of BMSCs (stroma). BMSCs alone (stroma) or BMSCs together with UTMC2 cells (stroma/UTMC2) were cultured with control antibody or 5 μg/ml PRO-001 for 72 hours and apoptosis was assessed by means of a flow cytometry assay of annexin V binding and propidium iodide exclusion. Values represent means of quadruplicate cultures ±SD.
as §1
For studies of apoptosis, cells were seeded at an initial density of 2.5×10^5/ml in 6 well plates coated with BMSCs and supplemented with control (vehicle or antibody) or 5 μg/ml PRO-001 and cultured for 48 h. Apoptosis was determined by Annexin V staining (Boehringer Mannheim, Indianapolis, Ind.) and analyzed by flow cytometry. […]

FGFR3^S249C = molecular target: T1, FGFR3^S249C (Homo sapiens, UniProt P22607, S249C); experiment: FGF-independent proliferation of FDCP-FGFR3^S249C cells in vitro (XTT); type: cell-based; conditions: two days
T1 construct: was transfected with full length FGFR1 (FDCP-FGFR1), FGFR2 (FDCP-FGFR2), FGFR3 (FDCP-FGFR3) or FGFR3^S249C mutant cDNAs; expressed in transfected cells; host or cells: FDCP-1 mouse myeloid progenitor cell line
Method: FIG. 8A is a graph showing viability of FDCP-FGFR3^S249C. Cells were cultured in the presence of increasing amounts of PRO-001 or a control antibody (C) for two days. Cell proliferation was determined by XTT analysis. Data are the average of duplicate cultures.
as §1, with “BRL).” for “BRL). FGFR3 expression was induced by removal of tetracyclin and serum starvation.”
as §2

T1 sequence (P22607 23-806 S249C): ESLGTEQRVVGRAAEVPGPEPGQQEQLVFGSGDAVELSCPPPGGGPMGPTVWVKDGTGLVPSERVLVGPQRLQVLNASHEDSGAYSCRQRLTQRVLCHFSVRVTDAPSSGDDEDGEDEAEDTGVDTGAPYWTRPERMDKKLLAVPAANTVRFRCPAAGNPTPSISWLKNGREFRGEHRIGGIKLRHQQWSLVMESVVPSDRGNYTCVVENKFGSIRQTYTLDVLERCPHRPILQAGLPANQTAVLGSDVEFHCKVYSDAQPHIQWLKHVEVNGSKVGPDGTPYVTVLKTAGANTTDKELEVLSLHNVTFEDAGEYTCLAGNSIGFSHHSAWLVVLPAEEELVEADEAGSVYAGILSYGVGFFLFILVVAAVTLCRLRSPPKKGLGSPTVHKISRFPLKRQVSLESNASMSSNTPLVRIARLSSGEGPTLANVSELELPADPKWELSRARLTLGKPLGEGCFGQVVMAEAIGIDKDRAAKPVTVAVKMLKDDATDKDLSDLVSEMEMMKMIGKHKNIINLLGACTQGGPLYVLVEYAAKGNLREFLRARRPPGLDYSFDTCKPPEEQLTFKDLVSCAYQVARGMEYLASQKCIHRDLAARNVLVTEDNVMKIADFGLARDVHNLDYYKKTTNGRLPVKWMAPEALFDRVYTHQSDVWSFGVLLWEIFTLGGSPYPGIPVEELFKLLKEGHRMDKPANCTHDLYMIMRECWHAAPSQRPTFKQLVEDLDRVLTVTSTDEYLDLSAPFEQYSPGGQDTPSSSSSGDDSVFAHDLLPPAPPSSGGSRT

B1: PRO-001: human anti-FGFR3 Fab from HuCAL library; VH-CDR3 SEQ ID NO:1, VL-CDR3 SEQ ID NO:10; VH SEQ ID NO:19, VL SEQ ID NO:28 (antibody, V domains shown)
VH: QVQLQQSGPGLVKPSQTLSLTCAISGDSVSSNSAAWNWIRQSPGRGLEWLGRTYYRSKWYNDYAVSVKSRITINPDTSKNQFSLQLNSVTPEDTAVYYCARSYYPDFDYWGQGTLVTVSS
VL: DIELTQPPSVSVAPGQTARISCSGDALGDKYASWYQQKPGQAPVLVIYDDSDRPSGIPERFSGSNSGNTATLTISGTQAEDEADYYCQSYDGPDLWVFGGGTKLTVLGQ
KMS18 (FGFR3-G384D)
  Viability of KMS18 (FGFR3-G384D): failed to inhibit the viability
BMSC
  Direct toxicity on the BMSC: no direct toxicity
FGFR3^S249C
  FGF-independent proliferation of FDCP-FGFR3^S249C in vitro: efficiently blocked
